Measurements reported in paper PMC2715226.
Changes are numbered by the printed parent chain.

T1: p51ΔN331 (human, UniProt P14921 331-441)
T1 sequence: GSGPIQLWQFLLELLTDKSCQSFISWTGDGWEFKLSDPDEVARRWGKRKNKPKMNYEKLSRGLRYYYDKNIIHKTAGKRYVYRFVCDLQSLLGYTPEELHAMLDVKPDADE

T2: p51ΔC415 (human, UniProt P14921 1-415)
T2 sequence: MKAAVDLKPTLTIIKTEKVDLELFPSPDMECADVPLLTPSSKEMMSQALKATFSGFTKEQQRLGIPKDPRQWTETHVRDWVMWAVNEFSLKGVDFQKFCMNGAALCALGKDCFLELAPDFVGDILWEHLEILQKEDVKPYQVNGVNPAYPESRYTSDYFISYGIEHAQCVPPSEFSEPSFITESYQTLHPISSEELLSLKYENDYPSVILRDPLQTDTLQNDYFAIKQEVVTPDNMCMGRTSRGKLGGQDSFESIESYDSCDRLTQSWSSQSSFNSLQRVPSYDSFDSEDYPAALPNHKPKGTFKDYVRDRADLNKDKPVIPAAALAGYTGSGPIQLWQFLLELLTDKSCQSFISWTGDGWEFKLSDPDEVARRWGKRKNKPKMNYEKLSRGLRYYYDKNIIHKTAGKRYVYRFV

T3: p51(301-415) (human, UniProt P14921 301-415)
T3 sequence: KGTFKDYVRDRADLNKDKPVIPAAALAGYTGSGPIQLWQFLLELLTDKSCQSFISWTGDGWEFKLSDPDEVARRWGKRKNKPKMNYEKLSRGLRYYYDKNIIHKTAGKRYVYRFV

T4: p42ΔC328 (human, UniProt P14921-2 1-328)
T4 sequence: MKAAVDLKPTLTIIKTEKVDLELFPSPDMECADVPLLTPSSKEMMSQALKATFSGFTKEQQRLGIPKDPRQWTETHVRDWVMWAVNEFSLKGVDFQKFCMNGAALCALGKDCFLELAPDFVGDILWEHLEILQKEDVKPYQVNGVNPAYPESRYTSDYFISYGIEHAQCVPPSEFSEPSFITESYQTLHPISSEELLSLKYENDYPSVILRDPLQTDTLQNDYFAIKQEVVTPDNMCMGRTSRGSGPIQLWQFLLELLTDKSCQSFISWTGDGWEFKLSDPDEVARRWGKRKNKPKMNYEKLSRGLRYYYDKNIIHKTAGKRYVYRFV

T5: Ets-1 DBD (human, UniProt P14921 331-415)
T5 sequence: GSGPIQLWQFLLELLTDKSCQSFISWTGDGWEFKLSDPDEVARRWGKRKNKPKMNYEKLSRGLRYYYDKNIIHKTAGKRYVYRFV

T6: Ets-1 p42 (human, UniProt P14921-2 1-354)
T6 sequence: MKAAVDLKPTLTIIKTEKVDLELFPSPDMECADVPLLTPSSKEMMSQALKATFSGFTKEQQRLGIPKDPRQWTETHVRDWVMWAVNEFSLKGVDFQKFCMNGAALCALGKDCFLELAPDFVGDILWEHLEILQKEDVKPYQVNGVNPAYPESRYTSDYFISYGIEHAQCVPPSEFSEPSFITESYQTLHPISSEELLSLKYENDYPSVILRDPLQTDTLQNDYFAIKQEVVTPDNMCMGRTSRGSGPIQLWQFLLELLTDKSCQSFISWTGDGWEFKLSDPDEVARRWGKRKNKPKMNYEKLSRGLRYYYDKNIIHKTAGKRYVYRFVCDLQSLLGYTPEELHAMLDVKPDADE

B1: WT+4 (dsDNA)
DNA 1: ACCAAGACAGGAAGCACGCACTTCCTGGAGATTA
DNA 2: TAATCTCCAGGAAGTGCGTGCTTCCTGTCTTGGT
B2: WT (dsDNA)
DNA 1: ACCAAGACAGGAAGCACTTCCTGGAGATTA
DNA 2: TAATCTCCAGGAAGTGCTTCCTGTCTTGGT
B3: IP (dsDNA)
DNA 1: ACCAAGAGCTTCCTGCAGGAAGTGAGATTA
DNA 2: TAATCTCACTTCCTGCAGGAAGCTCTTGGT
B4: M1 (dsDNA)
DNA 1: B2 DNA 1 with G10A, G11A
DNA 2: B2 DNA 2 with C20T, C21T
B5: M2 (dsDNA)
DNA 1: B2 DNA 1 with C20T, C21T
DNA 2: B2 DNA 2 with G10A, G11A

Tests used:
[1] = biological target: T1, p51ΔN331; assay: EMSA
[2] = biological target: T2, p51ΔC415; assay: EMSA
[3] = biological target: T3, p51(301-415); assay: EMSA
[4] = biological target: T4, p42ΔC328; assay: EMSA
[5] = biological target: T5, Ets-1 DBD; assay: EMSA
[6] = biological target: T6, Ets-1 p42; assay: EMSA
[7] = biological target: T6, Ets-1 p42; assay: not stated

| Binder | binding result [6] | Kd [7] [nM] | further results |
| --- | --- | --- | --- |
| B1 | binds |  | binding result [1]: binds; binding result [2]: binds; binding result [3]: binds; binding result [4]: binds; binding result [5]: binds |
| B2 |  | ~20 |  |
| B3 | binds |  |  |
| B4 |  | ~20 |  |
| B5 |  | ~20 |  |
